{"source": "patent US20050037394", "about": "“Method for in vitro selection of 2'-substituted nucleic acids” (published 2005)", "binders": {"B1": {"name": "ARC259 (ssRNA)", "RNA": "ACGCAGUUUGAGAAGUCGCGCGU", "modifications": "2'-OMe at all residues; 3'-inverted dT [2'-OMe at 1-23; 3'-inverted dT after nt 23 (not written in sequence); base pair swap at 2 (U>C) and 22 (A>G)]"}, "B2": {"name": "ARC245 (ssRNA)", "RNA": "AUGCAGUUUGAGAAGUCGCGCAU", "modifications": "2'-OMe at all residues; 3'-inverted dT [2'-OMe at 1-23; 3'-inverted dT after nt 23 (not written in sequence)]"}, "B3": {"name": "ARC224 (ssRNA)", "RNA": "CGAUAUGCAGUUUGAGAAGUCGCGCAUUCG", "modifications": "2'-OMe at all residues; 3'-inverted dT [2'-OMe at 1-30; 3'-inverted dT after nt 30 (not written in sequence)]"}, "B4": {"name": "AMX221.E1 (mixed)", "DNA": "GGGAGAGGAGAGAACGTTCTACCTTGGTTTGGCACAGGCATACATACGCAGGGGTCGATCGATCGATCATCGATG", "modifications": "dRmY: deoxy A,G; 2'-OMe C,U (cDNA printed, T=U)"}, "B5": {"name": "ARC789 (AMX(192)_A5) (mixed)", "DNA": "GGGAGAGGAGAGAACGTTCTACGTTTGCGGTCAGGATGGGGTGGTGGGAGGTCGATCGATCGATCATCGATG", "modifications": "dRmY: deoxy A,G; 2'-OMe C,U (cDNA printed, T=U)"}, "B6": {"name": "ARC821 (AMX(216)_A7) (mixed)", "DNA": "GGGAGAGGAGAGAACGTTCTACGGGGGTCGTGGGAGTAAGGGGGTGTAGGTAGGTCGATCGATCGATCATCGATG", "modifications": "dRmY: deoxy A,G; 2'-OMe C,U (cDNA printed, T=U)"}, "B7": {"name": "ARC818 (AMX(192)_E3) (mixed)", "DNA": "GGGAGAGGAGAGAACGTTCTACGGGTGGCTGGGGCAGGGGAGGTAGGTAGGGTCGATCGATCGATCATCGATG", "modifications": "dRmY: deoxy A,G; 2'-OMe C,U (cDNA printed, T=U)"}, "B8": {"name": "ARC820 (AMX(192)_D11) (mixed)", "DNA": "GGGAGAGGAGAGAACGTTCTACGGGGAGGAGGGTGGGGTAGCAGGTGTGGCAGGTCGATCGATCGATCATCGATG", "modifications": "dRmY: deoxy A,G; 2'-OMe C,U (cDNA printed, T=U)"}, "B9": {"name": "ARC819 (AMX(192)_F3) (mixed)", "DNA": "GGGAGAGGAGAGAACGTTCTACGGGCGGTTGGGGTCGGGGAGGATGGTACAGGGTCGATCGATCGATCATCGATG", "modifications": "dRmY: deoxy A,G; 2'-OMe C,U (cDNA printed, T=U)"}}, "key": {"VEGF [1]": {"molecular_target": "T1, VEGF (UniProt P15692-4 P15692-4:27-191)", "T1 sequence (P15692 other isoform, or with tags, fused parts or gaps)": "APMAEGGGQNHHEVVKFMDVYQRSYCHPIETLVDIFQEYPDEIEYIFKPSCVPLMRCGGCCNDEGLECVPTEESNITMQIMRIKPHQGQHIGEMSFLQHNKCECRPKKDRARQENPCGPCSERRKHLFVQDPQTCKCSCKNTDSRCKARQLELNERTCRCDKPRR", "assay": "FP; placeholder corrected: dot-blot nitrocellulose/nylon filter in PBS", "settings": "chain copies: 2", "procedure": "(§1) Binding assays were performed with trace ³²P-body-labelled transcripts that were incubated with various protein concentrations in silanized wells, these were then passed through a sandwich of a nitrocellulose membrane over a nylon membrane. Protein-bound RNA is visualized on the NC membrane, unbound RNA on the nylon membrane. The proportion binding is then used to calculate affinity (see FIGS. 4, 5, and 6). The nomenclature “mGXG” indicates a substitution of 2′-OH G for 2′-OMe G at position “X”, as numbered sequentially from the 5′-terminus. Thus, mG7G ARC224 is ARC224 with a 2′-OH at position 7. ARC225 is ARC224 with 2′-OMe to 2′-OH substitutions at positions 7, 10, 14, 16, 19, 22 and 24. All constructs (initially identified by SELEX™) were generated by solid-phase chemical synthesis."}, "VEGF [2]": {"molecular_target": "T1, VEGF", "assay": "filter; dot-blot in PBS", "settings": "chain copies: 2", "procedure": "as §1"}, "VEGF [3]": {"molecular_target": "T1, VEGF", "assay": "competition; 125I-VEGF binding to HUVEC", "settings": "chain copies: 2", "text": "FIG. 5 is a plot of ARC224 and ARC225 binding to VEGF. […] The supernatant was removed, the cells were washed, and bound VEGF was counted in a scintillation counter. ARC225 has the same sequence as ARC224 and 2′-OMe to 2′-OH substitutions at positions 7, 10, 14, 16, 19, 22 and 24 numbered from the 5′-terminus."}, "[4]": {"molecular_target": "T2, Complement C5 full length (Homo sapiens, UniProt P01031;P01031 P01031:19-673,P01031:678-1676)", "T2 sequence (P01031 19-673, chain 1 of 2)": "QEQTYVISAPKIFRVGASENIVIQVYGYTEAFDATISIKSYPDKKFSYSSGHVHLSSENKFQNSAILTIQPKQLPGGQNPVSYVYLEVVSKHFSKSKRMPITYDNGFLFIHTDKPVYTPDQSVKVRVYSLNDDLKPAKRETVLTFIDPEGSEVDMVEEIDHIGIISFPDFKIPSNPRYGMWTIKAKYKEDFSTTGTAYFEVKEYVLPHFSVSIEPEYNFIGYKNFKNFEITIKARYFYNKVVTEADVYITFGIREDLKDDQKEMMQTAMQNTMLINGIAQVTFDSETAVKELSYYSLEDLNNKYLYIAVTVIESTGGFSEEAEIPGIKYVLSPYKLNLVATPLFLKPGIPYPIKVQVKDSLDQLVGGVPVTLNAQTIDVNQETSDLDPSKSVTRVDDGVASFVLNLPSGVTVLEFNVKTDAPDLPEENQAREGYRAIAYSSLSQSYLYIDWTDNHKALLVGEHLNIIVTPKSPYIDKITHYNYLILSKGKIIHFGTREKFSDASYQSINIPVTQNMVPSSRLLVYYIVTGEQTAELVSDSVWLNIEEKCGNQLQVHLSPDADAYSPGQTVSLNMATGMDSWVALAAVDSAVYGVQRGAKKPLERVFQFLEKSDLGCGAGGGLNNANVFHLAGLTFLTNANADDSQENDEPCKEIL", "T2 sequence (P01031 678-1676, chain 2 of 2)": "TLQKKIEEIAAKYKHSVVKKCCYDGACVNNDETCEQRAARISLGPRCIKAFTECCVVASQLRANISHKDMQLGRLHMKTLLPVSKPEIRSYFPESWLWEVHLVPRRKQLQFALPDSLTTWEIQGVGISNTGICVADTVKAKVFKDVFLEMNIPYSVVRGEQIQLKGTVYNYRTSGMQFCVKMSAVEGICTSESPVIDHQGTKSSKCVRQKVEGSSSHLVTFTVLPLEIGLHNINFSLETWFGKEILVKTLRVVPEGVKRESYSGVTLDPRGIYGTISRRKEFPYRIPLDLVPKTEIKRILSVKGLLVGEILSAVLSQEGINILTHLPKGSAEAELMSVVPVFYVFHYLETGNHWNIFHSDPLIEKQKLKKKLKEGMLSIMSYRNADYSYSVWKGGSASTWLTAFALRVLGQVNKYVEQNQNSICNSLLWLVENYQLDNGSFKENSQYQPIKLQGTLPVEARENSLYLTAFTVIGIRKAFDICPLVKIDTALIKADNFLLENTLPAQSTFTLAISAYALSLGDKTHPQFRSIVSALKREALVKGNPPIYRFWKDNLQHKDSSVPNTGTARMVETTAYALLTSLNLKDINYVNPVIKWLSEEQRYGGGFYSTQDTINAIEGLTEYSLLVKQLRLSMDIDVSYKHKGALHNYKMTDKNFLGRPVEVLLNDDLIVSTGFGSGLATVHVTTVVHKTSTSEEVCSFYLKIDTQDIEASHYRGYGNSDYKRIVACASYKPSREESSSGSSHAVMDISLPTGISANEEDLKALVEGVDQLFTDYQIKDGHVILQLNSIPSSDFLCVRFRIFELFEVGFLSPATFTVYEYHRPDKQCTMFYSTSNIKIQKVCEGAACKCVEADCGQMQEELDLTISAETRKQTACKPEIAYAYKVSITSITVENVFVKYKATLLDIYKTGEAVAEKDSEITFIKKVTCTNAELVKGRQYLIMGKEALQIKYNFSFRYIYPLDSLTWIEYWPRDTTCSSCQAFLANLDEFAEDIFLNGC", "assay": "inhibition; 0.2% human serum, sheep erythrocytes, GVB++, 25 C", "settings": "tags: Quidel Corporation, San Diego", "procedure": "Hemolysis Assay: The effect of the AMX221.E1 clone on the classical pathway of the complement system was analyzed using a hemolysis assay compared to both ARC186 (Anti-C5 aptamer, positive control) and unselected dRmY pool (negative control). In the assay of hemolytic inhibition, a solution of 0.2% whole human serum was mixed with antibody-coated sheep erythrocytes (Diamedix EZ Complement CH50 Test, Diamedix Corporation, Miami, Fla.) in the presence oftitrated AMX221.E1. The assay was run in veronal-buffered saline containing calcium, magnesium and 1% gelatin (GVB⁺⁺ complement buffer) and incubated for 1 hr at 25° C. After incubation the samples were centrifuged. The optical density at 415 nm (OD₄₁₅) of the supernatant was read. The inhibition of hemolysis activity is expressed as % hemolysis activity compared to control. The IC₅₀ of the clone was calculated to be about 30 nM."}, "[5]": {"molecular_target": "T2, Complement C5 full length", "assay": "filter; 1x DPBS, extent of binding 20%", "settings": "tags: Quidel Corporation, San Diego"}, "IFN-gamma [6]": {"molecular_target": "T3, IFN-gamma (Homo sapiens, UniProt P01579 P01579:24-161)", "T3 sequence (P01579 24-161, one chain of several)": "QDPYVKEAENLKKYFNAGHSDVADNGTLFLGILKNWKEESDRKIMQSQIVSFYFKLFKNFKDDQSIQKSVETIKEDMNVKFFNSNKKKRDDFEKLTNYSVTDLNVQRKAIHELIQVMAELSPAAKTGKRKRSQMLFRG", "assay": "inhibition; IFN-gamma/IFN-gamma-R1 ELISA day 1; day 2 70 nM", "settings": "tags: R&D Systems, Minneapolis; chain copies: 2; label: 5'-32P", "procedure": "(§2) IFN-γ ELISA: The following ELISA method was used to measure the ability of IFN-γ aptamers to inhibit hIFN-γ from binding to the IFNγ-R1 receptor. To capture the IFNγ-R1, 175 ng of IFNγ-R1 (R&D systems, Minneapolis, Minn.) in 100 μl of PBS (pH 7.4) was incubated in each well of a Nunc Maxisorb plate (Nunc, Rochester, N.Y.) for 2 hours at room temperature. The solution was discarded and the plate was washed 3 times with 200 μl of TBS-T (25 mM Tris-HCl pH 7.5, 150 mM NaCl and 0.01% Tween −20). The plate was then blocked with 200 μl of 5% nonfat dry milk in TBS-T for 30 minutes at room temperature. After blocking, the plate was washed 3 times with 200 μl of TBS-T. Then, 100 μl of various concentrations of aptamers mixed with 5 nmoles of IFN-γ (R & D Systems) were incubated in appropriate wells for 1.5 hours at room temperature. […] Subsequently, 100 μl of 2 N H₂SO₄ was added to stop the reaction and the plate was read in a SpectraMax 96 well plate reader at […].\n(§3) IFNγ-R1 Binding Inhibition with hIFN-γ Aptamers: Five full length and 2 minimized aptamers to IFN-γ were tested for receptor binding inhibition activity using the ELISA method described above. […] IC₅₀'s for the duplicate assays were calculated and are shown in Table 22 below along with Kd values for each of the respective aptamers."}, "IFN-gamma [7]": {"molecular_target": "T3, IFN-gamma", "assay": "filter; 1x DPBS, 0.1 mg/ml BSA; Table 21 gives 167.31", "settings": "tags: R&D Systems, Minneapolis; chain copies: 2; label: 5'-32P"}, "IFN-gamma [8]": {"molecular_target": "T3, IFN-gamma", "assay": "inhibition; IFN-gamma/IFN-gamma-R1 ELISA day 1; day 2 100 nM", "settings": "tags: R&D Systems, Minneapolis; chain copies: 2; label: 5'-32P", "procedure": "as §2, §3"}, "IFN-gamma [9]": {"molecular_target": "T3, IFN-gamma", "assay": "filter; 1x DPBS, 0.1 mg/ml BSA; Table 21 gives 97", "settings": "tags: R&D Systems, Minneapolis; chain copies: 2; label: 5'-32P"}, "IFN-gamma [10]": {"molecular_target": "T3, IFN-gamma", "assay": "inhibition; ELISA day 2; text assigns ARC872 to E3 but printed sequence matches F3", "settings": "tags: R&D Systems, Minneapolis; chain copies: 2; putative G4", "procedure": "as §2, §3"}, "IFN-gamma [11]": {"molecular_target": "T3, IFN-gamma", "assay": "filter; 1x DPBS, 0.1 mg/ml BSA; Table 21 gives 227.87", "settings": "tags: R&D Systems, Minneapolis; chain copies: 2; label: 5'-32P"}, "IFN-gamma [12]": {"molecular_target": "T3, IFN-gamma", "assay": "inhibition; IFN-gamma/IFN-gamma-R1 ELISA day 1; day 2 190 nM", "settings": "tags: R&D Systems, Minneapolis; chain copies: 2; label: 5'-32P", "procedure": "as §2, §3"}, "IFN-gamma [13]": {"molecular_target": "T3, IFN-gamma", "assay": "inhibition; IFN-gamma/IFN-gamma-R1 ELISA day 1; day 2 270 nM", "settings": "tags: R&D Systems, Minneapolis; chain copies: 2; label: 5'-32P", "procedure": "as §2, §3"}, "IFN-gamma [14]": {"molecular_target": "T3, IFN-gamma", "assay": "filter; 1x DPBS, 0.1 mg/ml BSA; Table 21 gives 169.28", "settings": "tags: R&D Systems, Minneapolis; chain copies: 2; label: 5'-32P"}, "IFN-gamma [15]": {"molecular_target": "T3, IFN-gamma", "assay": "inhibition; ELISA day 2; text assigns ARC873 to F3 but printed sequence matches E3", "settings": "tags: R&D Systems, Minneapolis; chain copies: 2; putative G4", "procedure": "as §2, §3"}, "IFN-gamma [16]": {"molecular_target": "T3, IFN-gamma", "assay": "filter; 1x DPBS, 0.1 mg/ml BSA; Table 21 gives 206", "settings": "tags: R&D Systems, Minneapolis; chain copies: 2; label: 5'-32P"}}}
{"binder": "B1", "values": [{"measurement": "Kd", "setting": "VEGF [1]", "value": 0.0014, "unit": "µM"}]}
{"binder": "B2", "values": [{"measurement": "Kd", "setting": "VEGF [2]", "value": 0.0021, "unit": "µM"}]}
{"binder": "B3", "values": [{"measurement": "Kd", "setting": "VEGF [2]", "value": 0.0039, "unit": "µM"}, {"measurement": "IC50", "setting": "VEGF [3]", "value": "~0.002", "unit": "µM"}]}
{"binder": "B4", "values": [{"measurement": "IC50", "setting": "[4]", "value": "~0.03", "unit": "µM"}, {"measurement": "Kd", "setting": "[5]", "value": "~0.14", "unit": "µM"}]}
{"binder": "B5", "values": [{"measurement": "IC50", "setting": "IFN-gamma [6]", "value": 0.04, "unit": "µM"}, {"measurement": "Kd", "setting": "IFN-gamma [7]", "value": 0.15, "unit": "µM"}]}
{"binder": "B6", "values": [{"measurement": "IC50", "setting": "IFN-gamma [8]", "value": 0.13, "unit": "µM"}, {"measurement": "Kd", "setting": "IFN-gamma [9]", "value": 0.14, "unit": "µM"}]}
{"binder": "GGGCGGUUGGGGUCGGGGAGGAUGGUACAGGG (mixed, dRmY: deoxy A,G; 2'-OMe C,U)", "note": "[ARC872]", "values": [{"measurement": "IC50", "setting": "IFN-gamma [10]", "value": 0.2, "unit": "µM"}]}
{"binder": "B7", "values": [{"measurement": "Kd", "setting": "IFN-gamma [11]", "value": 0.18, "unit": "µM"}, {"measurement": "IC50", "setting": "IFN-gamma [12]", "value": 0.22, "unit": "µM"}]}
{"binder": "B8", "values": [{"measurement": "IC50", "setting": "IFN-gamma [13]", "value": 0.28, "unit": "µM"}, {"measurement": "Kd", "setting": "IFN-gamma [14]", "value": 0.17, "unit": "µM"}]}
{"binder": "GGGUGGCUGGGGCAGGGGAGGUAGGUAGGG (mixed, dRmY: deoxy A,G; 2'-OMe C,U)", "note": "[ARC873]", "values": [{"measurement": "IC50", "setting": "IFN-gamma [15]", "value": 0.33, "unit": "µM"}]}
{"binder": "B9", "values": [{"measurement": "Kd", "setting": "IFN-gamma [16]", "value": 0.18, "unit": "µM"}]}
